Non-standard residues stand in square brackets, D forms with d. No end group written: not given here. hArg = N=C(N)NCCCC[C@H](N)C(=O)O; Orn = NCCC[C@H](N)C(=O)O
How the values were obtained:
human GHRH receptor = target: T1, human GHRH receptor (Homo sapiens, UniProt Q02643); test: Hit Hunter (DiscoveRx) cAMP agonist assay in cells expressing GHRH receptor; type: cell-based; conditions: for In vitro potency / biological activity (in words): effect of Cys-PEG substitution compared with native peptide
T1 sequence (Q02643 23-423): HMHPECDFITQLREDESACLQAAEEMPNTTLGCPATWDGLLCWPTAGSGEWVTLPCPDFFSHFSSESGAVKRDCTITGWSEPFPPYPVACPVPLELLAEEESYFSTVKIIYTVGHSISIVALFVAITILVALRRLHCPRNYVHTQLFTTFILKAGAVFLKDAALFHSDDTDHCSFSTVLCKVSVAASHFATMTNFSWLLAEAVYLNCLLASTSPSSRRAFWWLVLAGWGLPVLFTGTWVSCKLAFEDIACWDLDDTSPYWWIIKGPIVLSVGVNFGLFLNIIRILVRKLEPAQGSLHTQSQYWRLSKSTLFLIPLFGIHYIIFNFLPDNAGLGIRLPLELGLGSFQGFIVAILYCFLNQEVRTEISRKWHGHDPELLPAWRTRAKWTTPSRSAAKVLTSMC
Description: For agonist determination, cells were incubated with sample to induce response. Media was aspirated from cells and replaced with 15 μL 2:1 HBSS/10 mM Hepes: cAMP XS+Ab reagent. […] Vehicle concentration was 1%. After appropriate compound incubation, assay signal was generated through incubation with 20 μL cAMP XS+ED/CL lysis cocktail for one hour followed by incubation with 20 μL cAMP XS+EA reagent for three hours at room temperature. Microplates were read following signal generation with a PerkinElmer Envision™ instrument for chemiluminescent signal detection. Compound activity was analyzed using CBIS data analysis suite (ChemInnovation, CA).

Growth Hormone secretion = test: GH release after subcutaneous injection of GHRH analogs in Sprague-Dawley rats (plasma GH ELISA); type: in vivo; conditions: female rats; for Growth hormone AUC (0-90 min): single subcutaneous dose 0.04 mg/kg, plasma GH, FIG. 1
Text: Sprague-Dawley rats (female, weighing from 250 to 300 g) were obtained from Charles River Inc. Animals were used according to a protocol of the Animal Care Committee along with the principles of the Guide for the Care and Use of Experimental Animals of the Canadian Council on Animal Care. The animals were maintained on standard laboratory chow under a 12:12 light:dark cycle. They were kept in groups of 4 rats per cage. The animals were anesthetized with isoflurane 2.5%. A mid-section opening was made in the neck to expose the carotid artery. The carotid artery was canulated with polypropylene tubing (PE-50) to allow blood withdrawal. After surgical preparation, rats received a subcutaneous injection of GHRH analog (10-100 μg/kg) dissolved in 20 mM AcONa+5% mannitol at pH 5). Blood samples (400 μL/time point) were collected from 2-4 animals per group. […] Blood was collected into microtainer tubes containing K3EDTA, mixed and immediately centrifuged at 13,000 RPM in a desktop centrifuge for 2 minutes. The plasma was collected and placed into a screw cap Eppendorf™ tube and quickly frozen in liquid nitrogen. The samples were then kept at −80° C. until assayed. Determination of GH levels was performed as described below.
Rat and mouse plasma samples were vortexed carefully and centrifuged at 9,000 RPM for 2 min at 4° C. […] The remainder of the procedure was performed according to the manufacturer's instructions, and the data obtained were analyzed using GraphPad Prism™ software. […] Growth hormone levels were determined in timed-aliquots of blood and are depicted in FIG. 1. […]
The N-terminal part of the GHRH peptide is known to be buried in the extracellular loops and transmembrane domains of the GHRH receptor, and thus almost all of the amino acids in the N-terminal domain participate in high affinity binding of the GHRH peptide to the receptor. […] Briefly, peptides (0.04 mg/kg) were subcutaneously injected in female rats and growth hormone levels were determined in timed aliquots of blood drawn from the animals.

In vitro potency / biological activity (in words) (human GHRH receptor)	Compound	further results
reduced potency	YaDAIFTASYROVLAQLSAROALQDC(Peg-2K)LSKN-NH2 (Y[dA]DAIFTASYR[Orn]VLAQLSAR[Orn]ALQDC(PEG 2 kDa)LSKN-NH2) [Analog 8, GHRH analog, Cys conjugated to about 2 kDa PEG at position 26]	–
reduced potency	YaDAIFTASYROVLAQLSC(Peg-2K)ROALQDILSKN-NH2 (Y[dA]DAIFTASYR[Orn]VLAQLSC(PEG 2 kDa)R[Orn]ALQDILSKN-NH2) [Analog 4, GHRH analog, Cys conjugated to about 2 kDa PEG at position 19]	–
reduced potency	YaDAIFTASYROVLC(Peg-2K)QLSAROALQDILSKN-NH2 (Y[dA]DAIFTASYR[Orn]VLC(PEG 2 kDa)QLSAR[Orn]ALQDILSKN-NH2) [Analog 5, GHRH analog, Cys conjugated to about 2 kDa PEG at position 15]	–
reduced potency	YaDAIFTC(Peg-2K)SYROVLAQLSAROALQDILSKN-NH2 (Y[dA]DAIFTC(PEG 2 kDa)SYR[Orn]VLAQLSAR[Orn]ALQDILSKN-NH2) [Analog 7, GHRH analog, Cys conjugated to about 2 kDa PEG at position 8]	Growth hormone AUC (0-90 min) (Growth Hormone secretion): 15657 ng/ml/90 min

The next lines start with the compound.

Compound	In vitro potency / biological activity (in words) (human GHRH receptor)	further results
CC[C@H](C)[C@H](NC(=O)[C@H](C)NC(=O)[C@H](CC(=O)O)NC(=O)[C@H](C)NC(=O)[C@@H](N)Cc1ccc(O)cc1)C(=O)N[C@@H](Cc1ccccc1)C(=O)N[C@H](C(=O)N[C@@H](CC(N)=O)C(=O)N[C@@H](CO)C(=O)N[C@@H](Cc1ccc(O)cc1)C(=O)N[C@@H](CCCNC(=N)N)C(=O)N[C@@H](CCCCN)C(=O)N[C@H](C(=O)N[C@@H](CC(C)C)C(=O)NCC(=O)N[C@@H](CCC(N)=O)C(=O)N[C@@H](CC(C)C)C(=O)N[C@@H](CO)C(=O)N[C@@H](C)C(=O)N[C@@H](CCCNC(=N)N)C(=O)N[C@@H](CCCCN)C(=O)N[C@@H](CC(C)C)C(=O)N[C@@H](CC(C)C)C(=O)N[C@@H](CCC(N)=O)C(=O)N[C@@H](CC(=O)O)C(=O)N[C@H](C(=O)N[C@@H](CCSC)C(=O)N[C@@H](CO)C(=O)N[C@@H](CCCNC(=N)N)C(N)=O)[C@@H](C)CC)C(C)C)[C@@H](C)O [GHRH1-29, reference compound]	–	Max. response (%) (human GHRH receptor; Table 3, independent experiment): 112.97%
YaDAIFTAC(Peg-2K)YROVLAQLSAROALQDILS-(Har)-NH2 (Y[dA]DAIFTAC(PEG 2 kDa)YR[Orn]VLAQLSAR[Orn]ALQDILS[hArg]-NH2) [Analog 10, GHRH analog, about 2 kDa PEG on Cys9, C-terminal Har-NH2]	–	Fold more potent than the native peptide (human GHRH receptor; Table 3 experiment, versus GHRH1-29): ~14 fold
YaDAIFTAC(Peg-2K)YROVLAQLSAROALQDILSKN-NH2 (Y[dA]DAIFTAC(PEG 2 kDa)YR[Orn]VLAQLSAR[Orn]ALQDILSKN-NH2) [Analog 6, GHRH analog, Cys conjugated to about 2 kDa PEG at position 9]	–	Growth hormone AUC (0-90 min) (Growth Hormone secretion): 29075 ng/ml/90 min
YaDAIFTAC(Peg-5K)YROVLAQLSAROALQDILS(Har)-NH2 (Y[dA]DAIFTACYR[Orn]VLAQLSAR[Orn]ALQDILS[hArg]-NH2; not fully specified (residue 9); printed as YaDAIFTAC(Peg-5K)YROVLAQLSAROALQDILS(Har)-NH2) [Analog 15, GHRH analog, 5K PEG on Cys9, C-terminal Har-NH2]	without loss of in vitro biological activity	–
YaDAIFTAC(Peg-40K)YROVLAQLSAROALQDILS(Har)-NH2 (Y[dA]DAIFTAC(PEG 40 kDa)YR[Orn]VLAQLSAR[Orn]ALQDILS[hArg]-NH2) [Analog 16, GHRH analog, about 40 kDa PEG on Cys9, C-terminal Har-NH2]	without loss of in vitro biological activity	–
YaDAIFTASYROVLAC(Peg-2K)LSAROALQDILSKN-NH2 (Y[dA]DAIFTASYR[Orn]VLAC(PEG 2 kDa)LSAR[Orn]ALQDILSKN-NH2) [Analog 9, GHRH analog, Cys conjugated to about 2 kDa PEG at position 16]	reduced potency	–
YaDAIFTASYROVLAQLSAROALQDILC(Peg-2K)KN-NH2 (Y[dA]DAIFTASYR[Orn]VLAQLSAR[Orn]ALQDILC(PEG 2 kDa)KN-NH2) [Analog 1, GHRH analog, Cys conjugated to about 2 kDa PEG at position 28]	–	Stimulation of GH secretion (in words) (Growth Hormone secretion; subcutaneous 0.04 mg/kg, FIG. 1 / FIG. 2): potently stimulated GH secretion

Reference: US9988428B2, “Pegylated bioactive peptides and uses thereof” (GRIFFON PHARMACEUTICALS INC., priority 2016, dated 2018)
